Results reported in publication PMC12548936, “Microfluidic‐Assisted Evolution of a Robust NAD^+‐Dependent Enzyme with Improved Isobutanol Tolerance at Elevated Temperatures” (Chemsuschem, 2025).

How the values were obtained:
[1] = substrate: NC(=O)c1ccc[n+]([C@@H]2O[C@H](COP(=O)(O)OP(=O)(O)OC[C@H]3O[C@@H](n4cnc5c(N)ncnc54)[C@H](O)[C@@H]3O)[C@@H](O)[C@H]2O)c1; test: photometric ALDH activity assay, Michaelis-Menten fit; assay type: biochemical, Herbaspirillum seropedicae; settings: co-substrate 5 mM D-glyceraldehyde, 100 mM HEPES, varied: cofactor
purified protein = substrate: O=C[C@H](O)CO; test: purified protein; settings: co-substrate 5 mM NAD+, 100 mM HEPES
[2] = wild type, Chis tag, pH 7.5, 30 °C, 30.0 °C
[3] = FIN4, GS-linker Nhis tag, pH 7.5, 50 °C
[4] = FIN4, GS-linker Nhis tag, pH 7.5, 50 °C, 50.0 °C
[5] = StEP template, GS-linker Nhis tag, pH 7.5, 50 °C
[6] = StEP template, GS-linker Nhis tag, pH 7.5, 50 °C, 50.0 °C
[7] = FIN3, GS-linker Nhis tag, pH 7.5, 50 °C
[8] = FIN3, GS-linker Nhis tag, pH 7.5, 50 °C, 50.0 °C
[9] = FIN5, GS-linker Nhis tag, pH 7.5, 50 °C, 50.0 °C

B1: HsALDH (HsALDH_Chis; NAD+-dependent aldehyde dehydrogenase / glyceraldehyde dehydrogenase GADH) (Herbaspirillum seropedicae SmR1) (protein)
chain: MYKDVQLFINGEWTASASGRTIDVINPATEEVIGKIAHADRADLDRALEAASKGFETWRNMSAFERSKIMRRAADLLRERAEEVARLMTMEQGKPLAEAKMETLGAADTIDWFAEEARRTYGRLVPARVPGAYQMVIKEPVGPVAAFTPWNFPLNQVVRKLSAALAAGCSIIVKAPEETPASPAELIRAYADAGVPAGVINLVYGVPAEISEYLIPHPVIKKISFTGSTPVGKQLAALAGQHMKRATMELGGHAPAMVFDDADVDVAAKMLATAKFRNAGQVCVSPTRFLVQKGVFNAFVDKFVTYAEQLKVGNGLEAGITMGPVANKRRIPALEALIDDAVSQGAQLRTGGKRIGNKGYFFQPTVLTNLPLQARAMNEEPFGPLALINSFETLDEVITEANRLPYGLAAYAFAKSAHTKHALAARVESGMLTINHLGLALPELPFGGIKDSGYGSEGGTEAIEAYINTKLVTQLDV
notes: recombinant, E. coli BL21(DE3); wild type with C-terminal His tag (Chis); models show dimerizing chains
[1]; wild type, Chis tag, pH 7.5, 30 °C
  Km: 590 µM
Purified protein; [2]
  Km: 13000 ± 400 µM
  kcat: 68.6 ± 0.8 s⁻¹

B2: HsALDH (HsALDH_Chis; NAD+-dependent aldehyde dehydrogenase / glyceraldehyde dehydrogenase GADH) (Herbaspirillum seropedicae SmR1; F147L/I36V/K221R/L432M/V284I) (protein)
chain: MYKDVQLFINGEWTASASGRTIDVINPATEEVIGKVAHADRADLDRALEAASKGFETWRNMSAFERSKIMRRAADLLRERAEEVARLMTMEQGKPLAEAKMETLGAADTIDWFAEEARRTYGRLVPARVPGAYQMVIKEPVGPVAALTPWNFPLNQVVRKLSAALAAGCSIIVKAPEETPASPAELIRAYADAGVPAGVINLVYGVPAEISEYLIPHPVIRKISFTGSTPVGKQLAALAGQHMKRATMELGGHAPAMVFDDADVDVAAKMLATAKFRNAGQVCISPTRFLVQKGVFNAFVDKFVTYAEQLKVGNGLEAGITMGPVANKRRIPALEALIDDAVSQGAQLRTGGKRIGNKGYFFQPTVLTNLPLQARAMNEEPFGPLALINSFETLDEVITEANRLPYGLAAYAFAKSAHTKHALAARVESGMMTINHLGLALPELPFGGIKDSGYGSEGGTEAIEAYINTKLVTQLDV
notes: as for B1
[1]; [3]
  Km: 500 ± 60 µM
  kcat: 46.6 ± 1.4 s⁻¹
Purified protein; [4]
  Km: 7200 ± 800 µM
  kcat: 46.6 ± 1.4 s⁻¹

B3: HsALDH (HsALDH_Chis; NAD+-dependent aldehyde dehydrogenase / glyceraldehyde dehydrogenase GADH) (Herbaspirillum seropedicae SmR1; F147L/I36V/V284I) (protein)
chain: MYKDVQLFINGEWTASASGRTIDVINPATEEVIGKVAHADRADLDRALEAASKGFETWRNMSAFERSKIMRRAADLLRERAEEVARLMTMEQGKPLAEAKMETLGAADTIDWFAEEARRTYGRLVPARVPGAYQMVIKEPVGPVAALTPWNFPLNQVVRKLSAALAAGCSIIVKAPEETPASPAELIRAYADAGVPAGVINLVYGVPAEISEYLIPHPVIKKISFTGSTPVGKQLAALAGQHMKRATMELGGHAPAMVFDDADVDVAAKMLATAKFRNAGQVCISPTRFLVQKGVFNAFVDKFVTYAEQLKVGNGLEAGITMGPVANKRRIPALEALIDDAVSQGAQLRTGGKRIGNKGYFFQPTVLTNLPLQARAMNEEPFGPLALINSFETLDEVITEANRLPYGLAAYAFAKSAHTKHALAARVESGMLTINHLGLALPELPFGGIKDSGYGSEGGTEAIEAYINTKLVTQLDV
notes: as for B1
[1]; [5]
  Km: 510 ± 30 µM
  kcat: 66.1 ± 2.0 s⁻¹
Purified protein; [6]
  Km: 12700 ± 1200 µM
  kcat: 66.1 ± 2.0 s⁻¹

B4: HsALDH (HsALDH_Chis; NAD+-dependent aldehyde dehydrogenase / glyceraldehyde dehydrogenase GADH) (Herbaspirillum seropedicae SmR1; F147L/I36V/K221R/V158A/V284I) (protein)
chain: MYKDVQLFINGEWTASASGRTIDVINPATEEVIGKVAHADRADLDRALEAASKGFETWRNMSAFERSKIMRRAADLLRERAEEVARLMTMEQGKPLAEAKMETLGAADTIDWFAEEARRTYGRLVPARVPGAYQMVIKEPVGPVAALTPWNFPLNQVARKLSAALAAGCSIIVKAPEETPASPAELIRAYADAGVPAGVINLVYGVPAEISEYLIPHPVIRKISFTGSTPVGKQLAALAGQHMKRATMELGGHAPAMVFDDADVDVAAKMLATAKFRNAGQVCISPTRFLVQKGVFNAFVDKFVTYAEQLKVGNGLEAGITMGPVANKRRIPALEALIDDAVSQGAQLRTGGKRIGNKGYFFQPTVLTNLPLQARAMNEEPFGPLALINSFETLDEVITEANRLPYGLAAYAFAKSAHTKHALAARVESGMLTINHLGLALPELPFGGIKDSGYGSEGGTEAIEAYINTKLVTQLDV
notes: as for B1
[1]; [7]
  Km: 420 ± 20 µM
  kcat: 46.9 ± 1.3 s⁻¹
Purified protein; [8]
  Km: 3300 ± 400 µM
  kcat: 46.9 ± 1.3 s⁻¹

B5: HsALDH (HsALDH_Chis; NAD+-dependent aldehyde dehydrogenase / glyceraldehyde dehydrogenase GADH) (Herbaspirillum seropedicae SmR1; … (protein)
chain: MYKDVQLFINGEWTASASGRTIDVINPATEEVIGKVAHADRADLDRALEAASKGFETWRNMSAFERSKIMRRAADLLRERAEEVARLMTMEQGKPLAEAKMETLGAADTIDWFAEEARRTYGRLVPARVPGAYQMVIKEPVGPVAALTPWNFPLNQVARKLSAALAAGCSIIVKAPEETPASPAELIRAYADAGVPAGVINLVYGVPAEISEYLIPHPVIRKISFTGSTPVGKQLAALAGQHMKRATMELGGHAPAMVFDDADVDVAAKMLATAKFRNAGQVCISPTRFLVQKGVFNAFVDKFVTYAEQLKVGNGLEAGITMGPVANKRRIPALEALIDDAVSQGAQLRTGGKRIGNKGYFFQPTVLTNLPLQARAMNEEPFGPLALINSFETLDEVITEANRLPYGLAAYAFAKSAHTKHALAARVESGMMTINHLGLALPELPFGGIKDSGYGSEGGTEAIEAYINTKLVTQLDV
notes: as for B1
[1]; FIN5, GS-linker Nhis tag, pH 7.5, 50 °C
  Km: 340 µM
Purified protein; [9]
  Km: 3500 ± 500 µM
  kcat: 54.8 ± 1.9 s⁻¹
